Data reported in publication doi:10.64898/2025.12.03.692134 (bioRxiv, 2025).

T1: Torpedo nicotinic acetylcholine receptor δ subunit (Tetronarce californica (Pacific …, UniProt P02718 22-522))
T1 sequence: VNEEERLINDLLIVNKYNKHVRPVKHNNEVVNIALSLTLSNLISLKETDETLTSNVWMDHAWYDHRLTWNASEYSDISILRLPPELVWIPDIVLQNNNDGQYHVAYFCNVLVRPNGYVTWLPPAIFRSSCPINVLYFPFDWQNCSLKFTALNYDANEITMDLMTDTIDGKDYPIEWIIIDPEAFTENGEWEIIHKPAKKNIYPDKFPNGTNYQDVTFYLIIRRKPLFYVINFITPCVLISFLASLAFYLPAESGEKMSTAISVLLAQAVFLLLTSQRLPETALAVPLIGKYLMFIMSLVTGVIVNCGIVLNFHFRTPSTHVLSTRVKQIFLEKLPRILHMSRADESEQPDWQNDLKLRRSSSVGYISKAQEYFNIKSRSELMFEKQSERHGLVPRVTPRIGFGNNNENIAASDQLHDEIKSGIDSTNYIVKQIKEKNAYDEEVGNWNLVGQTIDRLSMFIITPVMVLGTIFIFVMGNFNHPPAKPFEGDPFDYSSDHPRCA

B1: Torpedo nicotinic acetylcholine receptor β subunit (receptor)
chain: SVMEDTLLSVLFETYNPKVRPAQTVGDKVTVRVGLTLTNLLILNEKIEEMTTNVFLNLAWTDYRLQWDPAAYEGIKDLRIPSSDVWQPDIVLMNNNDGSFEITLHVNVLVQHTGAVSWQPSAIYRSSCTIKVMYFPFDWQNCTMVFKSYTYDTSEVTLQHALDAKGEREVKEIVINKDAFTENGQWSIEHKPSRKNWRSDDPSYEDVTFYLIIQRKPLFYIVYTIIPCILISILAILVFYLPPDAGEKMSLSISALLAVTVFLLLLADKVPETSLSVPIIIRYLMFIMILVAFSVILSVVVLNLHHRSPNTHTMPNWIRQIFIETLPPFLWIQRPVTTPSPDSKPTIISRANDEYFIRKPAGDFVCPVDNARVAVQPERLFSEMKWHLNGLTQPVTLPQDLKEAVEAIKYIAEQLESASEFDDLKKDWQYVAMVADRLFLYVFFVICSIGTFSIFLDASHNVPPDNPFA

What was measured:
[1] = biological target: B1; assay: cryo-EM structure
[2] = biological target: T1, Torpedo nicotinic acetylcholine …; assay: cryo-EM structure

| Binder | binding result [1] | binding result [2] |
| --- | --- | --- |
| Torpedo nicotinic acetylcholine receptor α subunit (receptor) SEHETRLVANLLENYNKVIRPVEHHTHFVDITVGLQLIQLISVDEVNQIVETNVRLRQQWIDVRLRWNPADYGGIKKIRLPSDDVWLPDLVLYNNADGDFAIVHMTKLLLDYTGKIMWTPPAIFKSYCEIIVTHFPFDQQNCTMKLGIWTYDGTKVSISPESDRPDLSTFMESGEWVMKDYRGWKHWVYYTCCPDTPYLDITYHFIMQRIPLYFVVNVIIPCLLFSFLTGLVFYLPTDSGEKMTLSISVLLSLTVFLLVIVELIPSTSSAVPLIGKYMLFTMIFVISSIIITVVVINTHHRSPSTHTMPQWVRKIFIDTIPNVMFFSTMKRASKEKQENKIFADDIDISDISGKQVTGEVIFQTPLIKNPDVKSAIEGVKYIAEHMKSDEESSNAAEEWKYVAMVIDHILLCVFMLICIIGTVSVFAGRLIELSQEG | binds |  |
| B1 |  | binds |
